These results are taken from patent publication US20050227220A1, “Compositions and Methods for Evaluating and Designing Nuclear Receptor Ligands that Modulate Co-Regulator Affinity” (priority 2002, published 2005).

Primed or numbered codes have the meaning given here. No end group written: not given here. *: point of attachment. fluorescein″ = fluorescein label attached to the peptide N-terminus; Biotin = O=C1N[C@H]2[C@H](CS[C@H]2CCCCC(=O)*)N1

To fix the notation:
T1: Fluoroscein-NCOR ID-C peptide (NCoR amino acids 2251-2275) (N-terminal fluorescein)
T1 construct: also called NCOR peptide; NCoR 2251-2275
T1 peptide: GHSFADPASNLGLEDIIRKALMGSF

T2: human PPARγ ligand binding domain (amino acids 206-477) (human, UniProt P37231-2 206-477)
T2 construct: range 206-477; placed at the N-terminus here; Biotinylated for FRET; also called PPARγ LBD
T2 sequence: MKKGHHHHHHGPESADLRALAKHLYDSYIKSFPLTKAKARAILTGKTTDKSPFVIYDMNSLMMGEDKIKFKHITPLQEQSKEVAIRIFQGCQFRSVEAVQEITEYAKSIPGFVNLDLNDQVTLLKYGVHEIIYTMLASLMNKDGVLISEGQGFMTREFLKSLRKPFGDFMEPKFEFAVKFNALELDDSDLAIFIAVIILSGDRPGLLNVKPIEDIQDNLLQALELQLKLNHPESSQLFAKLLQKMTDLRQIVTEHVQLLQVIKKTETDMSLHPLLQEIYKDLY

T3: human PPARα ligand binding domain (amino acids 192-468) (human, UniProt Q07869 192-468)
T3 construct: range 192-468; placed at the N-terminus here; Biotinylated for FRET; also called PPARα LBD
T3 sequence: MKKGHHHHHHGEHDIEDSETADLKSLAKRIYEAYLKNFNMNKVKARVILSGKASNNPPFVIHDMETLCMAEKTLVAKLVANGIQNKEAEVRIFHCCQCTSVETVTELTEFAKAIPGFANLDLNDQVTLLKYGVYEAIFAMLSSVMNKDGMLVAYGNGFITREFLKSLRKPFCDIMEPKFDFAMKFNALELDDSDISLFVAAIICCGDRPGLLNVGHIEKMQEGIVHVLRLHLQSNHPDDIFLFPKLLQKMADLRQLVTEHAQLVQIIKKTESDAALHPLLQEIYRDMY

T4: RARα ligand binding domain (amino acids 146-432) (UniProt P10276 146-432)
T4 construct: range 146-432; not shown: His-tag
T4 sequence (looked up): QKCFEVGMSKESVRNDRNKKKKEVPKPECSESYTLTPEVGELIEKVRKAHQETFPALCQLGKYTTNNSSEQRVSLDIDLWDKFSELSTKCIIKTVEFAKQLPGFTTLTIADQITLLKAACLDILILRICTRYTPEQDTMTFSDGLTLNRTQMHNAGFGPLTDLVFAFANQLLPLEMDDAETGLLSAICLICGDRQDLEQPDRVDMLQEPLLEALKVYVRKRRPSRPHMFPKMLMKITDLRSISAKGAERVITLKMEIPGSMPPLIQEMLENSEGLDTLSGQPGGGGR

T5: human PPARδ ligand binding domain (amino acids 139-441) (human, UniProt Q03181 139-441, Biotinylated (site not stated) in the FRET assays; unlabelled in fluorescence polarization and SPR.)
T5 construct: placed at the N-terminus here; Biotinylated for FRET; also called PPARδ LBD
T5 sequence: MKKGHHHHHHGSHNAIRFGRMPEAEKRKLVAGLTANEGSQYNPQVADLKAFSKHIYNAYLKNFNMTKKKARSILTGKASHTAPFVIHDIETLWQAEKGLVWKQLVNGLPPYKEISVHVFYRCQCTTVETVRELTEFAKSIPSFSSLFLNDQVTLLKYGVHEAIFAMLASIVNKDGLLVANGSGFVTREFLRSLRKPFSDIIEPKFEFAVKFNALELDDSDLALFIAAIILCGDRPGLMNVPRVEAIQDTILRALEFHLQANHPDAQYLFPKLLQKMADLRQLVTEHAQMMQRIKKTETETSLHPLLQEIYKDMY

T6: RXRα ligand binding domain (amino acids 225-462) (UniProt P19793 225-462)
T6 construct: range 225-462; Biotinylated for FRET; also called RXRα LBD; not shown: His-tag
T6 sequence (looked up): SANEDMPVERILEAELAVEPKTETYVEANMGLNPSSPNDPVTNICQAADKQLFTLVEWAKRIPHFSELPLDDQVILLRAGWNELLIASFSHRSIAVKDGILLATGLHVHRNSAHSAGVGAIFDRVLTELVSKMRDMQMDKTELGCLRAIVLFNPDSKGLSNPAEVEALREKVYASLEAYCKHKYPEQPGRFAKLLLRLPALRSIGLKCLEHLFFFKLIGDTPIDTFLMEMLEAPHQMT

T7: biotin-NCOR ID-C peptide (NCoR amino acids 2251-2275) (N-terminal biotin)
T7 construct: also called NCOR-derived co-repressor peptide
T7 peptide: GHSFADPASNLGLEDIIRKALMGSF

B1: TRβ ligand binding domain (receptor, UniProt P10828 202-461, looked up)
chain: EELQKSIGHKPEPTDEEWELIKTVTEAHVATNAQGSHWKQKRKFLPEDIGQAPIVNAPEGGKVDLEAFSHFTKIITPAITRVVDFAKKLPMFCELPCEDQIILLKGCCMEIMSLRAAVRYDPESETLTLNGEMAVTRGQLKNGGLGVVSDAIFDLGMSLSSFNLDDTEVALLQAVLLMSSDRPGLACVERIEKYQDSFLLAFEHYINYRKHHVTHFWPKLLMKVTDLRMIGACHASRFLHMKVECPTELFPPLFLEVFED
notes: also called Thyroid Receptor LBD; TRβ LBD
B2: VP16-human PPARγ2 (full length) (other)
chain: LSTAPPTDVSLGDELHLDGEDVAMAHADALDDFDLDMLGDGDSPGPGFTPHDSAPYGALDMADFEFEQMFTDALGIDEYGGMGETLGDSPIDPESDSFTDTLSANISQEMTMVDTEMPFWPTNFGISSVDLSVMEDHSHSFDIKPFTTVDFSSISTPHYEDIPFTRTDPVVADYKYDLKLQEYQSAIKVEPASPPYYSEKTQLYNKPHEEPSNSLMAIECRVCGDKASGFHYGVHACEGCKGFFRRTIRLKLIYDRCDLNCRIHKKSRNKCQYCRFQKCLAVGMSHNAIRFGRMPQAEKEKLLAEISSDIDQLNPESADLRALAKHLYDSYIKSFPLTKAKARAILTGKTTDKSPFVIYDMNSLMMGEDKIKFKHITPLQEQSKEVAIRIFQGCQFRSVEAVQEITEYAKSIPGFVNLDLNDQVTLLKYGVHEIIYTMLASLMNKDGVLISEGQGFMTREFLKSLRKPFGDFMEPKFEFAVKFNALELDDSDLAIFIAVIILSGDRPGLLNVKPIEDIQDNLLQALELQLKLNHPESSQLFAKLLQKMTDLRQIVTEHVQLLQVIKKTETDMSLHPLLQEIYKDLY
B3: GAL4-NcoR (2239-2300) (other)
chain: MKLLSSIEQACDICRLKKLKCSKEKPKCAKCLKNNWECRYSPKTKRSPLTRAHLTEVESRLERLEQLFLLIFPREDLDMILKMDSLQDIKALLTGLFVQDNVNKDAVTDRLASVETDMPLTLRQHRISATSSSEESSNKGQRQLTVSPAVTTSGSVSSRGHSFADPASNLGLEDIIRKALMGSFDDKVEDHGVVMSQPMGVVPGTANTS
notes: range 1-147;range 2239-2300; also called GAL4-NCoR 2239 to 2300
B4: LXR alpha LBD (receptor, not shown: small tags and cut ends)
chain: EEEQAHATSLPPRASSPPQILPQLSPEQLGMIEKLVAAQQQCNRRSFSDRLRVTPWPMAPDPHSREARQQRFAHFTELAIVSVQEIVDFAKQLPGFLQLSREDQIALLKTSAIEVMLLETSRRYNPGSESITFLKDFSYNREDFAKAGLQVEFINPIFEFSRAMNELQLNDAEFALLIAISIFSADRPNVQDQLQVERLQHTYVEALHAYVSIHHPHDRLMFPRMLMKLVSLRTLSSVHSEQVFALRLQDKKLPPLLSEIWDVHE
modifications: Biotinylated and bound to streptavidin-APC in the assay; His-tag not written
notes: also called LXRα
B5: SRC-1 peptide (amino acids 676-700) (peptide)
peptide: Biotin-CPSSHSSLTERHKILHRLLQEGSPS
modifications: also: fluorescent label in polarization assay, not given here
notes: also called SRC-1 (LCD2) 676-700; SRC peptide

The target in experiment [1] is Fluoroscein-NCOR ID-C peptide (NCoR amino acids 2251-2275). Briefly: fluorescence polarization.
The target of experiment [2] is Fluoroscein-SMRT ID-C peptide. Briefly: fluorescence polarization. On the technique in general: Fluorescence polarisation rises when a labelled molecule tumbles more slowly, as on binding a larger partner.
The target in experiment [3] is Fluoroscein-NCOR ID-C peptide (NCoR amino acids 2251-2275). Briefly: fluorescence polarization, 10 nM fluorescein peptide, LBD titrated, no ligand.
For experiment [4], the target named is Fluoroscein-SMRT ID-C peptide. The description is as above.
Experiment [5] addresses B5. Briefly: fluorescence polarization, with agonist ligand T3.
The target of experiment [6] is T1, Fluoroscein-NCOR ID-C peptide (NCoR …). The experiment can be described thus: fluorescence polarization, with agonist ligand T3.
For experiment [7] the target is unchanged. Briefly: fluorescence polarization, no ligand.
In the experiment “GAL4-NcoR (2239-2300)” the target is B3. The experiment can be described thus: cell-based or functional assay.
The target in a further experiment is GAL4-CBP (1-115) (UniProt P04386 1-147; P45481 1-115). Briefly: cell-based or functional assay.
For experiment [8], the target named is B2. The experiment can be described thus: mammalian two-hybrid in CV-1 cells.
The target in experiment [9] is T8, VP16-human PPARα (full length) (human, UniProt P06492 410-490; Q07869 1-468).
T8 construct: also called VP16 full length PPARα
Briefly: mammalian two-hybrid in CV-1 cells.

Experiment [10] concerns the target T2, human PPARγ ligand binding domain …. Briefly: fluorescence polarization, 10 nM fluorescein peptide, LBD titrated, no ligand.
Experiment [11] concerns the target B1. The experiment is described as above.
In experiment [12] the target is T3, human PPARα ligand binding domain …. Described as above.
The target in experiment [13] is T4, RARα ligand binding domain (amino acids …). The description is as above.
In experiment [14] the target is T5, human PPARδ ligand binding domain …. Described as above.
Experiment [15] deals with T9, ERβ ligand binding domain (amino acids 257-530) (UniProt Q92731 257-530).
T9 construct: range 257-530; not shown: His-tag
T9 sequence (Q92731 257-530 limits assumed): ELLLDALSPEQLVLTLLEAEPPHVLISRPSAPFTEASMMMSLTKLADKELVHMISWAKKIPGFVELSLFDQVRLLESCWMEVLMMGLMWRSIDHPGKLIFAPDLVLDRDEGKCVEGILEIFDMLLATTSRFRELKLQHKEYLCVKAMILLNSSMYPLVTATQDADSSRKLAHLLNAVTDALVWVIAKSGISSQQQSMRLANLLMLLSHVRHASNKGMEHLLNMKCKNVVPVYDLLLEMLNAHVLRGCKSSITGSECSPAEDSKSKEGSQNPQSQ
The description is as above.

For experiment [16], the target named is T6, RXRα ligand binding domain (amino acids …). Described as above.
In experiment [17] the target is T7, biotin-NCOR ID-C peptide (NCoR amino …). The experiment can be described thus: time-resolved FRET (ratio 665 nm/620 nm), biotinylated NCOR (2251-2275) peptide on europium streptavidin with APC-labeled LXRα LBD, test compound at 2 µM; normalized to % inhibition or activation.
Experiment [18] deals with B1. Briefly: fluorescence polarization, apparent affinity, no ligand.

“RXRαΔAF2 ligand binding domain (amino acids 225-446) (from UniProt P19793 225-446) (receptor)”: the fold greater affinity against RXRα ligand binding domain in experiment [1] and in experiment [2] was 100 fold in each case. For the same molecule, the Kd in [3] is 0.39 µM; in experiment [4], 0.25 µM.
In the case of B1, in [5], the “fold greater affinity against the co-repressor peptide (NCoR ID-C)” value stood at 48 fold and the “fold increase in affinity with T3 against no ligand” value was found to be 50 fold. In experiment [6], the “fold decrease in affinity with T3 against no ligand” value came to 9 fold. For the same molecule, in experiment [7], the “fold greater affinity against the coactivator peptide (SRC-1)” value was found to be 10 fold.
Regarding B2, the “mammalian two-hybrid reporter, fold dissociation with GW1929 and GW7845” value with GAL4-NcoR (2239-2300) was approximately 3 fold. Moreover, the “mammalian two-hybrid reporter, fold association with GW1929 and GW7845” value in the experiment with GAL4-CBP (1-115) was approximately 3 fold.
Take B3: the binding result in experiment [8] and in experiment [9] was “binds” throughout.
Regarding {fluorescein″}-TNMGLEAIIFKALMGKYDQWEE [Fluoroscein-SMRT ID-C peptide], the Kd in experiment [10] is 1.8 µM; in experiment [11], 0.74 µM; in experiment [12], 6.1 µM; in experiment [13] it was 2.1 µM; in experiment [14], 7.7 µM; in experiment [15], 30 µM. The Kd in experiment [16] is 20 µM.
On to B4, for which the binding result in [17] is recorded as “binds”.
For the molecule B5, the Kd in experiment [18] came to 7.1 µM.
